# Target: the molecule itself
# Experiment: SDS-PAGE of non-boiled extracts with Western blot
protein,measurement,value
"GFP‐NtUVR8 fusion protein (full‐length Nicotiana tabacum UVR8) (receptor, UniProt A0A1S4AB85 1-441, looked up) MAADGSSERAVSRKVLLISAGASHSVALLSANVVCSWGRGEDGQLGLGDAEDRFSPTQVSALDEQQIVSVTCGADHATAYSEALKQVYSWGWGDFGRLGHGNSSDLFTPQPIKALHGICIKQIACGDSHCLAVTMEGEVQSWGRNQNGQLGLGTTEDSLVPQKIEAFKGIPVKMVAAGAEHTAAVTEDGELYGWGWGRYGNLGLGDRNDRLVPVKVSATVGEKMFMVACGWRHTICVSSSGSLYTYGWSKYGQLGHGDFEDHLFPHKVQALHDSFTSQISGGWRHTMALTADGELYGWGWNKFGQVGVGDNVDHCSPVQVKFPHDQKVILISCGWRHTLAVTERQNVFSWGRGTNGQLGHGESVDRNVPRIIEALSVDGSSGQQIGSSTSDPSAAEKSWVSPTERYAVVPNENVPKQTVTSVKGNGNDVNVPENDVKRIRL",stoichiometry N,2

# Reference: paper PMC9540186 (The Plant Journal, 2022)
